T1: OX40 (CD134) (Mus musculus, UniProt P47741 P47741:20-211)
T1 sequence: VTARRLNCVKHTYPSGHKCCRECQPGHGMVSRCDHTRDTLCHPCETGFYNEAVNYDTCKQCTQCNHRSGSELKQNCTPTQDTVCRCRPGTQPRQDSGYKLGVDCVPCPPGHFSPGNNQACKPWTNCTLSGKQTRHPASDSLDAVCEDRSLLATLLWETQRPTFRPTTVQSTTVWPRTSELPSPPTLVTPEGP

B1: OX40 aptamer SEQ 82 (ssRNA)
RNA: GGGAGGACGAUGCGGCUUUUGAAUGCUCCCUUCACUCCAAGCGGCAGCCUAUCGUCAGACGACUCGCUGAGGAUCCGAGA
modifications: 2'-F pyrimidines, 2'-OH purines
B2: OX40 aptamer SEQ 77 (ssRNA)
RNA: GGGAGGACGAUGCGGCAGUCUGCAUCGUAGGAAUCGCCACCGUAUACUUUCCCACCAGACGACUCGCUGAGGAUCCGAGA
modifications: 2'-F pyrimidines, 2'-OH purines
B3: OX40 aptamer SEQ 79 (ssRNA)
RNA: GGGAGGACGAUGCGGCUUUAAUCCUCGCACUCAGCGCGCAUCACCCUUGACAUCACAGACGACUCGCUGAGGAUCCGAGA
modifications: 2'-F pyrimidines, 2'-OH purines
B4: OX40 aptamer SEQ 83 (ssRNA)
RNA: GGGAGGACGAUGCGGAUACCACCUAGUGUGAGGAACCCCGCUUCCUAGACUGCGCAGACGACUCGCUGAGGAUCCGAGA
modifications: 2'-F pyrimidines, 2'-OH purines
B5: OX40 aptamer SEQ 86 (ssRNA)
RNA: GGGAGGACGAUGCGGCCGUCAACCAAUCUCUCGCUUCACACGGCCAUGCCUCCAUCAGACGACUCGCUGAGGAUCCGAGA
modifications: 2'-F pyrimidines, 2'-OH purines
B6: OX40 aptamer SEQ 84 (ssRNA)
RNA: GGGAGGACGAUGCGGCAACCCAUCCAUACCAACAUGGAGCUAAUGUUAGUCAACGCAGACGACUCGCUGAGGAUCCGAGA
modifications: 2'-F pyrimidines, 2'-OH purines
B7: OX40 aptamer SEQ 80 (ssRNA)
RNA: GGGAGGACGAUGCGGCAAACCAGCUAUUUCCUGAGGUACCCCGGCUCUCCAUGGCAGACGACUCGCUGAGGAUCCGAGA
modifications: 2'-F pyrimidines, 2'-OH purines
B8: OX40 aptamer SEQ 81 (ssRNA)
RNA: GGGAGGACGAUGCGGAUACCAGCGAAUAACUCGCUGAGGAACCCGACUCACAAACAGACGACUCGCUGAGGAUCCGAGA
modifications: 2'-F pyrimidines, 2'-OH purines
B9: OX40 aptamer SEQ 85 (ssRNA)
RNA: GGGAGGACGAUGCGGCACUAACUCCAGCGACUCCAUCGCCAUUCCAACUCUACGCCAGACGACUCGCUGAGGAUCCGAGA
modifications: 2'-F pyrimidines, 2'-OH purines
B10: OX40 aptamer SEQ 78 (ssRNA)
RNA: GGGAGGACGAUGCGGAUACCAGGAUCACAUCCUGAGGAACCCCGGCUCCCAACCUCAGACGACUCGCUGAGGAUCCGAGA
modifications: 2'-F pyrimidines, 2'-OH purines

biological target: T1, OX40 (CD134); experiment: filter; 20 mM Hepes pH 7.4, 150 mM NaCl, 2 mM CaCl2; Kd not given; conditions: tags: human IgG Fc fusion; chain copies: 2; label: 5' 32P
Description: Eleven rounds of selection were performed with increasing stringency throughout the selection process by increasing the RNA: OX40 protein ratio in the selection reaction. Aptamers from rounds 9 and 11 DNA were cloned into a plasmid vector, and single colonies were sequenced and amplified by low cycle PCR amplification following by in vitro transcription. Binding constants for the clones were determined using filter-binding assays in a buffer composed of 20 mM Hepes pH 7.4, 150 mM NaCl, 2 mM CaCl2. To determine the affinities of monomeric aptamers (e.g., which may be expressed as Kd or dissociation constant), serial dilutions of murine OX40 IgG Fc fusion protein, human IgG1, or protein G were incubated with monomeric 5′ ³²P radiolabeled aptamers at 2000 cpm/μL. The mixture was passed over a stack of membranes consisting of a nitrocellulose membrane and nylon membrane through application of a vacuum. The membranes were exposed to a phosphoimager screen, scanned and quantitated using a phosphoimager. Finally, differential fractions of RNA bound were calculated and graphed using commercially available software, and affinity was then expressed as Kd. The predicted secondary structure of the resultant nucleic acid aptamers was determined by utilizing the algorithm m-fold using default settings for folding parameters. Illustrative examples of the nucleic acid aptamers isolated from the aforementioned selections against OX40 are shown in Table 2; wherein nucleic acid sequences comprising SEQ ID NOs: […] represent the variable regions from clones with binding specificity to OX40; and a nucleic acid sequence comprising SEQ ID:87 represents the RNA library constant regions, with a constant region (e.g., nucleic acid bases in positions 1-41 of […]) flanking the 5′ end of the variable regions, a constant region (e.g., nucleic acid bases in positions 82-106 of SEQ ID NO:87) flanking the 3′end of the variable regions, and the variable regions being designated by N(40) in Table 2 (nucleic acid bases in positions 42-81 of SEQ ID NO:87). It is understood by those skilled in the art that the variable regions may be flanked by constant regions other than those comprising the constant regions depicted in SEQ ID NO: 87, while still retaining binding activity for OX40.

Binding result, binds:
B1
B2
B3
B4
B5
B6
B7
B8
B9
B10

From patent US20100076060, “Aptamers as agonists” (DUKE UNIVERSITY, published 2010)
